{"source": "patent US20030186841", "assay_in_all_cases": "cell_activity", "key": {"2C7LBDAS (synthetic)": {"tested_on": "2C7LBDAS (synthetic)", "conditions": "about; estrogen, 6x2C7 SV40 luc, Cos cells"}, "C7LBDAS (synthetic)": {"tested_on": "C7LBDAS (synthetic)", "conditions": "ligand-dependent, 6x2C7pGL3Luc"}, "[1]": {"tested_on": "C7LBDAS G400V G400V (human ER numbering) (synthetic)", "conditions": "ligand-dependent, 6x2C7pGL3Luc"}}, "data": [{"sequence": "GCGTGGGCG (double strand) [C7 site of 6x2C7 luc reporter]", "values": [{"measurement": "activity (fold induction)", "setting": "2C7LBDAS (synthetic)", "result": 2}, {"measurement": "activity (fold induction)", "setting": "C7LBDAS (synthetic)", "result": 10}, {"measurement": "activity (fold induction)", "setting": "[1]", "result": 420}]}]}
